Laboratory results as given in the supplement of paper PMC9732359.
± gives the uncertainty stated by the source.

Experiment: protein stability index of a GFP-peptide fusion (yeast GPS) (PSI 1-4); higher = more stable; sorted into four equal gates, so the index is relative within each strain
Procedure, shortened: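 For each peptide, the protein stability index sums the read frequency in every gate after multiplying it by the gate number. Read frequencies came from plasmids that were PCR-amplified from each gate and Illumina-sequenced, with reads assigned to strains by barcodes. The gates were four equal bins of GFP/Cherry fluorescence ratio applied to mid-log yeast in leucine-free medium carrying a pooled library of tiled 17-residue yeast protein peptides fused downstream of GFP on a Cherry-expressing plasmid.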

| Sequence | protein stability index (doa10∆) | protein stability index (pdr5∆) | protein stability index (san1∆) | protein stability index (ubr1∆) |
| --- | --- | --- | --- | --- |
| YQKNKPYPKSRYNRAVP [RPL10] | 2.91 ± 0.045 | 3.06 ± 0.045 | 3.06 ± 0.04 | 2.85 ± 0.038 |
| THQSPPPPPQQSQPIAN [SNF5] | 3.01 ± 0.057 | 3.07 ± 0.043 | 2.98 ± 0.04 | 2.94 ± 0.046 |
| DSVFSFGPKKENRKKDE [YLR335W/NUP2] | 3.01 ± 0.091 | 2.86 ± 0.078 | 2.9 ± 0.048 | 3.03 ± 0.056 |
| KGVATTREKVLEDKLRA [RRP46] | 3.36 ± 0.15 | 3.16 ± 0.12 | 2.71 ± 0.23 | 3.04 ± 0.075 |
| KKVQALQSDKNFLDNCL [ITC1] | 3.13 ± 0.084 | 2.83 ± 0.05 | 2.83 ± 0.046 | 3.05 ± 0.036 |
| FLSQGLHVVITLLREVV [CSN12] | 1.49 ± 0.06 | 1.73 ± 0.059 | 1.91 ± 0.093 | 2.13 ± 0.057 |
| MNFNTPQQNKTPFSFGT [YJL041W/NSP1] | 3.15 ± 0.057 | 3 ± 0.051 | 2.92 ± 0.061 | 2.95 ± 0.05 |
| TDENTPSADGADKKDDS [ITC1] | 3.04 ± 0.11 | 3.11 ± 0.062 | 3.36 ± 0.064 | 2.98 ± 0.061 |
| SESQLNSTLKKVESQET [YCS4] | 2.62 ± 0.18 | 3.4 ± 0.22 | 3.31 ± 0.1 | 3.04 ± 0.29 |
| NGEIKGENIDADNDGPR [SNF2] | 3.07 ± 0.074 | 3.48 ± 0.069 | 3.49 ± 0.063 | 3.08 ± 0.073 |
| TLTELKDALSNSILSVR [SRB2] | 3.29 ± 0.068 | 3.38 ± 0.082 | 3.21 ± 0.049 | 3.37 ± 0.09 |
| LTGTVVSTKMHRTIVIR [RPS11A] | 2.06 ± 0.063 | 2.25 ± 0.046 | 2.14 ± 0.08 | 1.87 ± 0.037 |
| GGHSLEEISFSLSEGCD [PRP28] | 2.17 ± 0.11 | 2.42 ± 0.067 | 1.93 ± 0.13 | 2.25 ± 0.094 |
| AVKTAETGYMSRRLMKS [RPO31] | 2.33 ± 0.13 | – | 2.52 ± 0.25 | – |
| ADNTKDKEKEENNDDAL [MED4] | 2.86 ± 0.14 | 3.04 ± 0.11 | 2.98 ± 0.078 | 3.16 ± 0.082 |
| SVINVSAQRDRRYRKRV [RPS17A] | 2.34 ± 0.06 | 2.06 ± 0.063 | 1.71 ± 0.1 | 2.06 ± 0.08 |
| SALWSSRKGIAFGLGAI [ECM29] | 2.59 ± 0.13 | 2.89 ± 0.094 | 2.2 ± 0.13 | 2.55 ± 0.089 |
| TQPKATSTGTTIVGVKF [PUP1] | 3.48 ± 0.12 | 3.52 ± 0.1 | 3.28 ± 0.1 | 3.03 ± 0.091 |
| MEKKKSSSLSLESFMKS [SNM1] | 1.84 ± 0.04 | 1.91 ± 0.045 | 2.62 ± 0.06 | 2.04 ± 0.04 |
| LQLSKTPLSIKIMVAEW [SRB8] | 2.31 ± 0.17 | 2.84 ± 0.072 | 2.69 ± 0.13 | 3 ± 0.12 |
| PSQFGMLCTADTPEGEA [RET1] | – | 1.7 ± 0.23 | 2.58 ± 0.22 | – |
| AIIVAGVQSNGDQFLRY [PRE4] | 2.74 ± 0.095 | 2.83 ± 0.073 | 2.4 ± 0.13 | 2.28 ± 0.061 |
| RSVRIPWYNNPVSCIIQ [PRP8] | 2.33 ± 0.1 | 2.19 ± 0.068 | 2.02 ± 0.16 | 2.55 ± 0.06 |
| PAKVAEEGINKFKKEKF [SRP54] | 3.2 ± 0.066 | 3.44 ± 0.059 | 3.38 ± 0.046 | 3.23 ± 0.057 |
| DDVRDFVIRREVTKGEK [RPS6A] | 3.37 ± 0.14 | 3.4 ± 0.094 | 3.08 ± 0.14 | 3.62 ± 0.18 |
| KISEDPVKALNECIAST [SNF12] | 2.37 ± 0.17 | 2.86 ± 0.12 | 2.62 ± 0.068 | 2.82 ± 0.097 |
| AEEFDFNVPVVSKQLGN [YAR002W/NUP60] | 2.47 ± 0.18 | 1.35 ± 0.17 | 1.28 ± 0.14 | 1.14 ± 0.11 |

| Sequence | protein stability index (doa10∆) | protein stability index (pdr5∆) | protein stability index (san1∆) | protein stability index (ubr1∆) |
| --- | --- | --- | --- | --- |
| RYSMSEQFPFYLHDNAS [IRR1] | 3.02 ± 0.09 | 3.01 ± 0.06 | 2.97 ± 0.063 | 3.03 ± 0.042 |
| FANNLKSAISNNFRESD [SIR4] | 2.55 ± 0.053 | 2.59 ± 0.048 | 2.56 ± 0.044 | 2.41 ± 0.042 |
| TVDVSSPTENGVFDPAS [RPL22A] | 3.06 ± 0.054 | 3.17 ± 0.064 | 2.69 ± 0.057 | 2.87 ± 0.042 |
| ISPLMKSQYNMVLRNVM [SRB8] | 2.32 ± 0.068 | 2.12 ± 0.12 | 2.79 ± 0.1 | 2.84 ± 0.11 |
| DHFLSMCQNPMQKPVPF [FAS1] | 2.93 ± 0.18 | 3.01 ± 0.14 | – | 2.42 ± 0.081 |
| HQQQQQQQQQQQQQQQQ [SNF5] | 2.78 ± 0.056 | 2.88 ± 0.049 | 2.88 ± 0.056 | 2.93 ± 0.055 |
| IYQHLASHNEKDQDSQI [SRP72] | 2.58 ± 0.092 | 2.45 ± 0.074 | 2.53 ± 0.12 | 2.78 ± 0.099 |
| IPNQEVLQYSDWESDLH [YDL116W/NUP84] | 2.1 ± 0.056 | 2 ± 0.056 | 2.43 ± 0.043 | 2.18 ± 0.057 |
| SIKDTQNVGQGKLQRKE [BRN1] | 1.96 ± 0.1 | 2.56 ± 0.081 | 1.94 ± 0.11 | 2.7 ± 0.049 |
| QEQVQDYVNKTNSHLPA [FAS1] | 2.52 ± 0.069 | 2.44 ± 0.1 | 2.62 ± 0.11 | 2.32 ± 0.064 |
| QLIAKNVANVSGSTEKA [SIR3] | 3.03 ± 0.085 | 3.04 ± 0.07 | 3.1 ± 0.054 | 2.88 ± 0.061 |
| NENKVIIELPNEKFEIE [SRB4] | 2.89 ± 0.077 | 2.86 ± 0.081 | 2.94 ± 0.055 | 2.8 ± 0.042 |
| RGMLGLLEPPAKELQGI [RPO31] | 2.08 ± 0.18 | 1.72 ± 0.18 | 3.28 ± 0.096 | 3.23 ± 0.16 |
| QAPTELELQVAQAFVEL [RPS7A] | 2.53 ± 0.055 | 2.82 ± 0.063 | 2.59 ± 0.047 | 2.45 ± 0.046 |
| SHLWEIDIPLDEQAFYN [RPC37] | – | 2.45 ± 0.27 | 2.98 ± 0.24 | – |
| RLRTLCRDSDDHKRFIV [DIS3] | 2.68 ± 0.2 | 2.75 ± 0.13 | 2.2 ± 0.27 | 2.95 ± 0.048 |
| SVLDEQEQYQTNTFEGS [SNU114] | 3.12 ± 0.14 | 3.22 ± 0.08 | 3.26 ± 0.11 | 3.31 ± 0.071 |
| ALDYLIPPPMPKNQQYR [MED7] | 2.53 ± 0.08 | 2.58 ± 0.1 | 2.5 ± 0.096 | 2.6 ± 0.078 |
| KKFDISNDNLDLISEIL [MED1] | 2.77 ± 0.067 | 2.89 ± 0.058 | 2.84 ± 0.061 | 3 ± 0.049 |
| KSIQDIVGLATLIVNTD [SRP21] | 2.85 ± 0.054 | 3.05 ± 0.05 | 2.93 ± 0.039 | 2.97 ± 0.037 |
| ALEFLNTTLQDNVSFIE [REC8] | 2.95 ± 0.072 | 3.27 ± 0.12 | 3.05 ± 0.11 | 2.87 ± 0.072 |
| GYLIQVLLTFLQDELHK [YCS4] | 2.97 ± 0.1 | 2.02 ± 0.088 | 2.01 ± 0.12 | 3.24 ± 0.096 |
| VLDSMTKEELESDGRMF [SRP54] | 3.02 ± 0.088 | 3.2 ± 0.089 | 3.37 ± 0.051 | 2.27 ± 0.059 |
| KSPSLTAQKYPIYTGDG [YMR153W/NUP53] | 2.33 ± 0.055 | 2.19 ± 0.051 | 2.08 ± 0.069 | 2.01 ± 0.036 |
| IKCSQSSHLSDNDFIIN [POP5] | 2.96 ± 0.09 | 2.85 ± 0.059 | 2.66 ± 0.059 | 2.55 ± 0.041 |
| KDYHTLANNVESKLRDD [RPS18A] | 3.29 ± 0.14 | 3.48 ± 0.15 | 3.39 ± 0.11 | 3.33 ± 0.088 |
